Test results taken from patent KR20230066722A (dated 2023).

Molecular target: S275F RSV F protein (Synagis-resistant RSV antigen) (respiratory syncytial virus, UniProt P03420 26-524)
Assay: ratio of the ELISA Kd values, reference 11L

B1: RSV Protein-1A12 Ab (antibody, V domains shown)
VH: EVQLVESGGGLVQPGGSLRLSCAASGFTFTSSWMSWVRQAPGKGLEWVSEIDGYNGSTYYADSVKGRFTISRDNSKNTLYLQMNSLRAEDTAVYYCARTVPWWGMDYWGQGTLVTVSS
VL: DIQMTQSPSSLSASVGDRVTITCRASQNISNYLAWYQQKPGKAPKLLIYLASSLESGVPSRFSGSGSGTDFTLTISSLQPEDFATYYCQQANSPPRTFGQGTKVEIK
notes: The ELISA detected the antibody with anti-human IgG Fc-HRP, so a human Fc is implied; also called 항체 1A12; 1A12 항체
B1 was tested, and the “fold higher affinity for S275F than for 11L” value was ~15 배 (fold).
